Here are results for one molecule from publication PMC4456664 (2015).

This test concerns the target BSA (Bos taurus, UniProt P02769). The experiment in a line: ITC.

Sequence of BSA (P02769 25-607): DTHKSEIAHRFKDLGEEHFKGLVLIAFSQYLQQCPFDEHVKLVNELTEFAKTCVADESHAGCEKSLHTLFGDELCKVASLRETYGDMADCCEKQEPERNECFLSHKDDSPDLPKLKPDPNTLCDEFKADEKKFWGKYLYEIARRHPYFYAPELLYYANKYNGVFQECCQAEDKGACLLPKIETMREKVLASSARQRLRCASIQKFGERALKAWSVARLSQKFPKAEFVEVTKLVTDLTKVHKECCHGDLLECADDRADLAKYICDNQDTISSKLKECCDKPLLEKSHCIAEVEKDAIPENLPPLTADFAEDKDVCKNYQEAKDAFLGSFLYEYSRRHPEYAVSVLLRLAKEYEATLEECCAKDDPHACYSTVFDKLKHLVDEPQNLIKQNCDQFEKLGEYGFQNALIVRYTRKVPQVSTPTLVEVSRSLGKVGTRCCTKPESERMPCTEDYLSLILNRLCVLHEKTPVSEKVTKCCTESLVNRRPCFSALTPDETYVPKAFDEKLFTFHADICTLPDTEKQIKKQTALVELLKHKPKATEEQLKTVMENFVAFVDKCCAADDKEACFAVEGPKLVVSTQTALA

B1: PYL10 (protein)
chain: MNGDETKKVESEYIKKHHRHELVESQCSSTLVKHIKAPLHLVWSIVRRFDEPQKYKPFISRCVVQGKKLEVGSVREVDLKSGLPATKSTEVLEILDDNEHILGIRIVGGDHRLKNYSSTISLHSETIDGKTGTLAIESFVVDVPEGNTKEETCFFVEALIQCNLNSLADVTERLQAESMEKKI
B1 registered a Kd of 3000 nM.
